± gives the standard deviation.
Assay: protein stability index of a GFP-peptide fusion (GPS, HEK-293T) (PSI 1-6); higher = more stable
[1] = treatment: DMSO, c terminus: a fixed tail appended
[2] = treatment: MLN4924 1 uM, 8 h, c terminus: a fixed tail appended
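Also: 24-mer peptide tiles fused after GFP, lentivirally expressed, FACS-sorted into six equal bins by GFP/DsRed ratio, decoded by Illumina sequencing, PSI is the read-weighted mean bin number.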

Row | Sequence | protein stability index [1] | protein stability index [2] | protein stability index (treatment: DMSO, c terminus: native) | protein stability index (treatment: MLN4924 1 uM, 8 h, c terminus: native)
1 | HRTHTGERPYGCDECEKAYFYMSC [ZNF649] | 2.68 ± 0.17 | 2.54 ± 0.26 |  | 
2 | STSEESWTDSEVDSSCSGQPIHLW [SPDEF] | 4.21 ± 0.32 | 4.37 ± 0.25 |  | 
3 | SMFSRVGGIIAPFIPSLKYVQWSL [SLC22A15] | 2.54 ± 0.41 | 2.5 ± 0.65 |  | 
4 | VQDMGQEDMLLPLAWRIVNDTYRT [CCNC] | 2.37 ± 0.21 | 2.57 ± 0.43 |  | 
5 | FEQLPDDVAISANIADIEEKRGFT [NCF4] | 5.03 ± 0.33 | 5.05 ± 0.21 |  | 
6 | PVIEELTNAGFLQTESELQELSEV [FAN1] | 4.87 ± 0.1 | 4.92 ± 0.16 |  | 
7 | WLVHRDPEGSVSGSQPNSGLALES [NFE2L1] | 3.78 ± 0.31 | 3.97 ± 0.12 |  | 
8 | QEVTKLQQQVKTNGAGVTVLRREI [FBXO28] | 3.97 ± 0.25 | 4.03 ± 0.45 |  | 
9 | QLWELGKVLRKAGLSAGYVDAGAE [LPCAT4] | 2.13 ± 0.27 | 2.13 ± 0.36 |  | 
10 | SQLSMKASLENSLEETKGRYCMQL [KRT16] | 3.44 ± 0.18 | 3.61 ± 0.31 |  | 
11 | SWRTLAILVNLQGTVVFLLSLFIP [SLC22A15] | 3.4 ± 0.53 | 2.89 ± 0.11 |  | 
12 | IVDPTTGKRYCRGKVLGKGGFAKC [PLK2] | 2.63 ± 0.38 | 2.92 ± 0.16 |  | 
13 | GAEPSAPGGGGSPGACPALGTKSC [RTN3] | 5.36 ± 0.26 | 5.4 ± 0.26 |  | 
14 | LFAEEQAEGPNRLLYKDGFSTILH [LPCAT4] | 3.17 ± 0.24 | 3.1 ± 0.35 |  | 
15 | MEVPQPEPAPGSALSPAGVCGGAQ [CDC25B] | 5.25 ± 0.34 | 5.23 ± 0.33 |  | 
16 | NLPIIAKMAAVSKASGRFGLLQGT [SEPHS2] | 2.31 ± 0.18 | 2.25 ± 0.2 |  | 
17 | PVPILEKLPLQIDCLAAWEEWLLV [VPS39] | 2.24 ± 0.19 | 2.18 ± 0.27 |  | 
18 | EELVARSETHAAGHSQEKTHSREK [CHGB] | 5.66 ± 0.28 | 5.47 ± 0.5 |  | 
19 | VKTSVPSSKSSGDLVDLFDGTSQS [CLINT1] | 4.71 ± 0.24 | 4.8 ± 0.18 |  | 
20 | GPEDLSYQIYDVSGESNSAVSTED [LARP4] | 5.39 ± 0.17 | 5.44 ± 0.13 |  | 
21 | PIRSRRALPPLRTRSKSDPVLHPS [FAM189A2] | 4.9 ± 0.17 | 4.94 ± 0.16 |  | 
22 | INKEELEGNSMRCGRKLAKDGEYC [GMCL1] | 4.04 ± 0.36 | 4.15 ± 0.49 |  | 
23 | SGTPQAGTPSPSRSRDSNSGPEEP [RTN2] | 5.35 ± 0.068 | 5.48 ± 0.28 |  | 

Row | Sequence | protein stability index [1] | protein stability index [2] | protein stability index (treatment: DMSO, c terminus: native) | protein stability index (treatment: MLN4924 1 uM, 8 h, c terminus: native)
24 | TGYLSSMVGLILGPFGVNHGVELH [PCMTD2] | 3.17 ± 0.31 | 2.78 ± 0.4 |  | 
25 | EARICRLLKHPNIVRLHDSISEEG [CAMK2D] | 3.56 ± 0.47 | 3.34 ± 0.28 |  | 
26 | QFTAWPDHGVPEHPTPFLAFLRRV [PTPRD] | 2.44 ± 0.2 | 2.76 ± 0.26 |  | 
27 | AVPKFMKRIKVPDYKDRSVFGVPL [DLC1] | 2.33 ± 0.15 | 2.4 ± 0.25 |  | 
28 | GYQLSDHTVGVLFNNGAHMSLLPD [PLK2] | 3.08 ± 0.2 | 3.14 ± 0.081 |  | 
29 | LGYPYVNSVSSHASSPYISSVQSY [DLX1] | 2.29 ± 0.18 | 2.35 ± 0.27 |  | 
30 | DLEAQMESLKEELLSLKQNHEQEV [KRT33B] | 4.95 ± 0.32 | 4.96 ± 0.22 |  | 
31 | WNDCISSGLRGGILIELAMRGRIY [GOLPH3L] | 2.89 ± 0.45 | 2.48 ± 0.53 |  | 
32 | GDTKRATPIEVLCENFPEMATYLR [CSNK1G3] | 3.04 ± 0.33 | 2.97 ± 0.38 |  | 
33 | SDLFSLAEEYEDSSTKPPKSRRKA [INTS3] | 5.15 ± 0.34 | 5.33 ± 0.36 |  | 
34 | EILPFLYLGSAYHASKCEFLANLH [DUSP5] | 2.94 ± 0.5 | 2.92 ± 0.75 |  | 
35 | HLKKVASRYQNNIKNDKYGPWLEW [PRIM1] | 2.23 ± 0.38 | 2.3 ± 0.25 |  | 
36 | ASIQNHVRKREAPAPEAESKQTEK [EFHC1] | 5.36 ± 0.28 | 5.32 ± 0.37 |  | 
37 | IYDNAVQGLRRHEILQWVLQTDSQ [LRRC59] | 2.56 ± 0.2 | 2.64 ± 0.35 |  | 
38 | MAEASATGACGEAMAAAEGSSGPA [SEPHS2] | 5.44 ± 0.2 | 5.3 ± 0.17 |  | 
39 | LVGAQAPATEEQEAASSSSTLVEV [MAGEA3] | 5.43 ± 0.21 | 5.3 ± 0.097 |  | 
40 | PPKKPSNWRRKHEEFIATIRAAKG [ZC2HC1A] | 3.65 ± 0.15 | 3.82 ± 0.14 |  | 
41 | IFYFVIQRKKWVDLAWMITFYVRF [FADS1] | 2.6 ± 0.72 | 2.93 ± 0.94 |  | 
42 | NTQTEELNQQVVSSSEQLQCCQTE [KRT36] | 5.49 ± 0.28 | 5.51 ± 0.081 |  | 
43 | SESTNTTIEDEDTKVRKQEIIKVT [CAMK2A] | 5.32 ± 0.24 | 5.31 ± 0.18 |  | 
44 | SLQERKQALYEYARRRFTERRAQE [AUP1] | 4.53 ± 0.18 | 4.44 ± 0.21 |  | 
45 | LTTKGEMPVQLTSRREIRKIMGVE [ANKRD40] | 3.7 ± 0.048 | 3.85 ± 0.18 |  | 
46 | MASVRIREAKEGDCGDILRLIREL [SAT2] | 3.01 ± 0.17 | 3.23 ± 0.37 |  | 

Row | Sequence | protein stability index [1] | protein stability index [2] | protein stability index (treatment: DMSO, c terminus: native) | protein stability index (treatment: MLN4924 1 uM, 8 h, c terminus: native)
47 | GLGAGFGGGFAGGDGLLVGSEKVT [KRT16] | 3.98 ± 0.11 | 4.081 ± 0.035 |  | 
48 | PQYAERLLSGAFKKRRLPPVHIHP [FOXJ1] | 2.76 ± 0.22 | 2.9 ± 0.1 |  | 
49 | RVMPTQEVQELPIPSKLLEFLSYR [WSB1] | 2.94 ± 0.26 | 2.95 ± 0.24 |  | 
50 | DREEEAIHHLVLTASDGGDPLRSG [PCDHGA10] | 5.02 ± 0.2 | 5.08 ± 0.11 |  | 
51 | KLRLFDTPHTPKSLLSKARGIDSS [WEE1] | 3.19 ± 0.092 | 3.26 ± 0.32 |  | 
52 | EVQDLLEGCELPDLPSSLLLPEDM [SMG5] | 4.5 ± 0.13 | 4.67 ± 0.2 |  | 
53 | MLLFLSVPQPRPPGARTRAGAARV [FBXO33] | 2.31 ± 0.26 | 2.13 ± 0.21 |  | 
54 | QAWGSMLEVPAGSRLNLTGLGYFS [CCDC3] | 2.35 ± 0.3 | 1.79 ± 0.2 |  | 
55 | CVLRCSVLEIEQSMNRVKNISDAD [FEM1B] | 2.58 ± 0.37 | 2.83 ± 0.24 |  | 
56 | QKSGLIRHQKIHSGEKPYKCSDCG [ZNF649] | 3.63 ± 0.52 | 4.04 ± 0.29 |  | 
57 | NVLHVARLPNRQLISCSEDGSVRI [WDR41] | 2.99 ± 0.17 | 3.12 ± 0.32 |  | 
58 | QAQGARAGGSARRPDTGDDAAGHG [GMCL1] | 5.41 ± 0.4 | 5.57 ± 0.35 |  | 
59 | AGLEDEDVIIEVNGVNVLDEPYEK [PDZK1] | 5.05 ± 0.35 | 5 ± 0.27 |  | 
60 | APELLGGAEPGTYLTGTINGDPES [ADAMTS4] | 5.73 ± 0.28 | 5.51 ± 0.36 |  | 
61 | VKEWFGLGGEQAEEKAFESVIEPV [MIA2] | 4.23 ± 0.23 | 4.04 ± 0.15 |  | 
62 | NEGLMKWENRHEGVFKFLRSEAVA [ELF3] | 3.01 ± 0.11 | 3.09 ± 0.22 |  | 
63 | PVENFFVKCNGALINTSDTVQHGA [SDE2] | 3.07 ± 0.12 | 3.08 ± 0.26 |  | 
64 | ELAELEDALRNLKCGSGARGGDGE [TRADD] | 4.7 ± 0.39 | 4.66 ± 0.07 |  | 
65 | AHRIAAQTLLGTAKMLLHEGQHPA [PYCR3] | 2.97 ± 0.31 | 2.95 ± 0.42 |  | 
66 | VDDHTPWVKGSVPPPLDQYVKFDA [CLPTM1] | 3.99 ± 0.15 | 3.74 ± 0.24 |  | 
67 | MLGFRPYRFYFYMWKFVSPLCMAV [SLC6A17] | 2.27 ± 0.25 | 2.29 ± 0.68 |  | 
68 | ADILAGREDNSGSDVLIGDILVLL [SLC35F2] | 2.48 ± 0.26 | 2.43 ± 0.18 |  | 
69 | FKSLFGSIGDIESCKLVRDKITGQ [ELAVL3] | 2.87 ± 0.38 | 2.56 ± 0.15 |  | 

Row | Sequence | protein stability index [1] | protein stability index [2] | protein stability index (treatment: DMSO, c terminus: native) | protein stability index (treatment: MLN4924 1 uM, 8 h, c terminus: native)
70 | ESTELMTHLEAQNRIKGCHDHLTL [PDLIM4] | 3.83 ± 0.13 | 3.88 ± 0.15 |  | 
71 | QHNLRYSLENTLTESEARYSSQLS [KRT33B] | 4.11 ± 0.27 | 4.11 ± 0.21 |  | 
72 | QEDITKSLLVTELGSSRTPETVRM [IMPA1] | 4.58 ± 0.12 | 4.49 ± 0.34 |  | 
73 | ETLLKVDLENRCQSLTEDLEFRKS [LMNB1] | 4.42 ± 0.22 | 4.43 ± 0.2 |  | 
74 | TVVTGLGPDTQDLEGQSPPQSLPS [PBXIP1] | 5.07 ± 0.34 | 5.16 ± 0.098 |  | 
75 | PTHLSNGQMSTPETPQPSPPGGSG [HNF4A] | 5.15 ± 0.15 | 4.98 ± 0.24 |  | 
76 | SDNMSHLMVDFAQERQMLQALKFL [FSD1] | 2.55 ± 0.3 | 2.49 ± 0.23 |  | 
77 | ADEDDDRDVALQIHFTLIQAFCCE [GADD45A] | 2.28 ± 0.35 | 2.36 ± 0.085 |  | 
78 | EEPCSPGLLQDQGSGLSSRFEEPK [CBY2] | 5.4 ± 0.19 | 5.29 ± 0.34 |  | 
79 | GPAGGLADLSSGSSGEDDDFKSCP [PWWP2B] | 5.43 ± 0.22 | 5.45 ± 0.26 |  | 
80 | PSVPCTPAPQVGTQIRTITEEIRD [KRT36] | 5.07 ± 0.36 | 5.22 ± 0.24 |  | 
81 | ISYLVLSMISMGLFSIAPLIYGSM [JAGN1] | 2.91 ± 0.46 | 3.19 ± 0.17 |  | 
82 | YMIHEPEPHILLFRRPLPKKPKK [CKS1B] |  |  | 2.55 ± 0.23 | 2.99 ± 0.5
83 | KKDRPLARRKSELPQDPHTKKALE [PPP2R5C] | 5.11 ± 0.2 | 4.96 ± 0.12 |  | 
84 | RRQLEACQRERAFSVKFEVQAPRW [OAS1] | 2.75 ± 0.23 | 2.93 ± 0.18 |  | 
85 | LSLLVHNVSVMHKSLDNMPNDEHW [FBXO33] | 2.36 ± 0.31 | 2.4 ± 0.14 |  | 
86 | LLASSDAALSASMASLLEDLSHIE [SERTAD1] | 3.06 ± 0.37 | 3.27 ± 0.33 |  | 
87 | LPDAGSGRQPALRPHVHKQTEKTT [ISL2] | 5.26 ± 0.22 | 5.04 ± 0.23 |  | 
88 | KDMATGKSKGYGFVSFFNKWDAEN [TIA1] | 2.44 ± 0.3 | 2.94 ± 0.28 |  | 
89 | LSQADFLVCTFSSQVCRVAYEIMQ [FUT8] | 2.96 ± 0.39 | 2.93 ± 0.58 |  | 
